The record followed here is US20030166537A1, “Use of GDNF for treating corneal defects” (Biopharm Gesellschaft Zur Biotechnologischen Entwicklung …, priority 1999, published 2003).

Assay [1] deals with ERK1, ERK2, JNK1 and JNK2. The experiment in a line: western blot of phosphorylated MAP kinases in cultured human corneal epithelium. The assay is classed as cell-based. Particulars: human epithelial cells. The method, then: In order to evaluate the effect of GDNF and other neurotrophic factors on the activation of signal transduction pathways in cultured corneal epithelial and stromal keratocytes, western blots were performed for detecting an accumulation of phosphorylated MAP kinases ERK and JNK in the presence of GDNF, NGF and BDNF. Human stromal keratocytes were cultured in RPMI 1640 medium containing L-glutamine (glutaMAX) or DMEM with 10% FBS for one day and starved in serum-free medium for another day. Cultures were then washed with PBS and incubated in serum-free DMEM without additives or with recombinant human GDNF (200 ng/ml), recombinant human NGF (200 ng/ml) and recombinant human BDNF (200 ng/ml) (all obtained from R & D Systems, Mineapolis, Minn., USA) for 30 min. Some cultures were incubated with an inhibitor of MAP kinases (PD 98059, Torcris Cookson Ballwin, Mo., USA) at 100 μM for 1 h prior to exposure to neurotrophines. After washing with PBS, culture cells were solubilized in lysis buffer containing 50 mM Tris-Cl (pH 8.0), 150 mM NaCl, 0.02% sodium azide, 100 μg/ml PMSF, 1% Triton X-100 and a mixture of several protein inhibitors (Complete®, Boehringer Mannheim) (one tablet/50 ml buffer). 50 μg total protein per lane was fractionated by a 10% STS-MOPS NUPAGE Bis-tris gel (NOVEX, San Diego, Calif., USA) and blotted onto nitrocellulose membrane. Membranes were stained with diluted polyclonal antibodies against ERK1, ERK2, JNK1 and JNK2 (Santa Cruz Biotechnology, Santa Cruz, Calif., USA). Also a polyclonal antibody was used which recognizes the […] form of either ERK1 and ERK2 which was raised against the catalytic core of the phosphorylated threonine residue 183 and tyrosine residue 185 of mammalian ERK2. Similarily, a polyclonal antibody recognizing the phosphorylated form of JNK1 and JNK2 was used (both from Promega). In the last step the membranes were visualized with the ECL western blot analysis system (Amersham).

A further assay relates to corneal ulcer. The assay can be described thus: topical therapy of corneal ulcer in a human patient. The assay is classed as in vivo. Particulars: one patient. The method, then:
[…] Corneal ulcer accompanied by massive inflammation on the left. Epithelial defect of 3.8×3.0 mm in size, furthermore ulcus of corneal stroma in form of a punched-out defect comprising 80% of the thickness of the cornea. No pain sensation of the cornea and significant accompanying inflammation of the eye. The patient was treated with recombinant human (rh) GNDF (0.2 mg/ml) (25 μl/dose) in 2 hours intervals for 48 hours, then the doses were reduced to 20 μl 6 times per day. After healing of the epithelium the concentration was reduced to 0.1 mg/ml, and 20 μl doses were given 5 times per day. For adminstration, lyophilized recombinant human GDNF was diluted in sterile balanced salt solution (Alcon, Freiburg Germany).

A further assay addresses T1, Ret (Homo sapiens, UniProt P07949).
T1 construct: The level of phosphorylated Ret (approximately 150 kD) in cultured corneal epithelial cells (control) was low prior to addition of GDNF; endogenous in cells; host or cells: SV40-transformed human corneal epithelial cell line (Araki-Sasaki et al., 1995)
The assay can be described thus: immuno-precipitation and western blot of tyrosine-phosphorylated Ret in cultured corneal epithelial cells. Type of assay: cell-based. Particulars: GDNF 200 ng/ml vs serum-free control cultures.

Assay [2] deals with primary human corneal epithelial cells. The assay can be described thus: in vitro wound healing assay (scratch wound), primary cells. Type of assay: cell-based. Particulars: 250 ng/ml; 18 h; control less than 10%. The method, then:
(§1) For in vitro wound healing assays primary corneal epithelial cells and cells from the corneal epithelial cell line were seeded at a density of 5×10^5 onto 60 mm plastic dishes with 2 mm grid (Sarstedt, Numbrecht, Germany) and cultured for 2 days until subconfluency. For experiments with artemin primary cultured rabbit corneal epithelial cells were used. These cells had been isolated with Dispase (1,2 U/ml) and trypsin/EDTA. Rabbit cells had been cultured in medium 500 with additives (Cascade Biologies).
(§2) The cell layer was injured under the microscope by inducing several parallel scratches with a soft plastic cell scrubber (Falcon, Becton and Dickinson, Heidelberg, Germany). The tip of the scrubber was cut and measured about 1 mm and consequently the width of the scratch in the cell layer was also about 1 mm. Selected areas in the dishes were marked with a very fine marker pen and consecutive images were taken at different time points at 5×magnification under an inverted phase contrast microscope (Axiovert 25, Zeiss, Jena, Germany) equipped with a video camera. Following the experimental injury dishes were incubated in SHEM medium either containing no growth factors (control) or containing either GDNF (250 ng/ml) (recombinant human GDNF expressed in E. coli), NGF (250 ng/ml) (Boehringer Mannheim, Germany) or EGF ([…]). For experiments investigating artemin cells were cultured in medium 500 without additives and 250 ng artemin was added. For each condition four representative areas were evaluated within three dishes. The mean diameter of the scratch in each representative area was set as 100% at the beginning of the experiment. 18 hours later the mean diameter of the same scratch was calculated again and expressed in percent of the diameter at the beginning of the experiment.

In assay [3] the test system is corneal epithelial cells from the SV40 transformed cell line. The experiment in a line: in vitro wound healing assay (scratch wound), cell line. The assay is classed as cell-based, human. To be noted: 250 ng/ml; 18 h; control 20%±4.5. The method, then:
as §1, §2

In assay [4] the test system is corneal epithelial cells. The assay can be described thus: modified Boyden chamber migration assay. Type of assay: cell-based. Particulars: 250 ng/ml in lower well. The method, then: In order to further evaluate the chemotactic effect of GDNF on corneal epithelial cells, a modified Boyden chamber assay was used. 4×10^5 cells from the either primary cultured cells or the corneal epithelial cell line were seeded onto tissue culture inserts containing a polyethylene terephthalate (PET) filter having a pore size of 8 μm (Falcon). Within 4 hours after seeding most cells had attached to the filter and formed a semiconfluent monolayer. The medium was then changed to SHEM without additives in the upper well and SHEM with GDNF (250 ng/ml) in the lower well. After 24 h of culture cells were removed from the surface of the insert by gentle scrubbing with a rubber policeman. Cells on the bottom of the insert (which had migrated through the filter) were fixed with −20° C. methanol and stained with crystal violet. The entire surface of the filters was screened for cells under the microscope.

Assay [5] concerns corneal epithelial cells. The assay can be described thus: in vitro wound healing model with herbimycin A. To be noted: 250 ng/ml GDNF alone; 18 hours. Type of assay: cell-based. The method, then: as §1
The cell layer was injured under the microscope by inducing several parallel scratches with a soft plastic cell scrubber (Falcon, Becton and Dickinson, Heidelberg, Germany). The tip of the scrubber was cut and measured about 1 mm and consequently the width of the scratch in the cell layer was also about 1 mm. Selected areas in the dishes were marked with a very fine marker pen and consecutive images were taken at different time points at 5×magnification under an inverted phase contrast microscope (Axiovert 25, Zeiss, Jena, Germany) equipped with a video camera. […] For each condition four representative areas were evaluated within three dishes. […] 18 hours later the mean diameter of the same scratch was calculated again and expressed in percent of the diameter at the beginning of the experiment. […]

Where [6] appears, read: rhGDNF 0.2 mg/ml eye drops, topical.

T1 sequence (P07949 29-1114): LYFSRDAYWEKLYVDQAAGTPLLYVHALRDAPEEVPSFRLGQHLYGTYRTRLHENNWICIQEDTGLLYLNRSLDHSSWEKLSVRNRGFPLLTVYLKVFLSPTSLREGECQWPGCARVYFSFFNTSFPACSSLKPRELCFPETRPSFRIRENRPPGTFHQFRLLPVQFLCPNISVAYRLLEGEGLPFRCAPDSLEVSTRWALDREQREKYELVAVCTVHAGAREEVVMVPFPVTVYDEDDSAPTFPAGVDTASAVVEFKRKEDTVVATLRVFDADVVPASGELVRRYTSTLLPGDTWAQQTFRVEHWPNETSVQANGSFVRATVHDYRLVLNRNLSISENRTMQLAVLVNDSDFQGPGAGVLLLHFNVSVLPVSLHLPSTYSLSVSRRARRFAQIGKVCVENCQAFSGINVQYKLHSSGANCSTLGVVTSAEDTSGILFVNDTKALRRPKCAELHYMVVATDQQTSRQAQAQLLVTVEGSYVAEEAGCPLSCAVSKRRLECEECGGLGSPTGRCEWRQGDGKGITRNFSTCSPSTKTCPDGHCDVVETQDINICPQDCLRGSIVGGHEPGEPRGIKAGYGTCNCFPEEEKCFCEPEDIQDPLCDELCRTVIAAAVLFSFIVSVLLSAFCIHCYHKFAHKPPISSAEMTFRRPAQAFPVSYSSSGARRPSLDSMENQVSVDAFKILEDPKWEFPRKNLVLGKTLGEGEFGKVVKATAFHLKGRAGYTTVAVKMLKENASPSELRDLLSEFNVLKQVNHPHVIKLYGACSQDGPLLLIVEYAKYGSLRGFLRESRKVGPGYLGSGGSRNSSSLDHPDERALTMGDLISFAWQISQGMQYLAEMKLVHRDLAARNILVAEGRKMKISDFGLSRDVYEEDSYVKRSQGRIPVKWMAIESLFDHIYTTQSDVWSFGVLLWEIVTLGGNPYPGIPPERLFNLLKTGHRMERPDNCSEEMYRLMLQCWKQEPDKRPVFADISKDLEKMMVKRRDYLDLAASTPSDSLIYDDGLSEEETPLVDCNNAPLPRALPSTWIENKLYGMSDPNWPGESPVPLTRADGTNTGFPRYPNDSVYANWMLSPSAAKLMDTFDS

B1: GDNF: recombinant human GDNF having the amino acid sequence of human wild-type GDNF (GenBank L19063, L15306) (protein)
chain: SPDKQMAVLPRRERNRQAAAANPENSRGKGRRGQRGKNRGCVLTAIHLNVTDLGLGYETKEELIFRYCSGSCDAAETTYDKILKNLSRNRRLVSDKVGQACCRPIAFDDDLSFLDDNLVYHILRKHSAKRCGCI
On to B1, for which the “phosphorylation of ERK1 and ERK2” value in assay [1] (200 ng/ml factor vs serum-free control medium) is on record as “induced”. In addition, in assay [1] (vs control), the “phosphorylation of JNK1/2” value is reported as “not induced”. Besides, in the assay on corneal ulcer (setting [6]), the “start of wound healing” value was found to be 2 days and the “time to complete wound healing of the epithelium” value is 3 weeks. Besides, in the assay with corneal ulcer (rhGDNF topical), the “inflammation and subjective afflictions after healing of the epithelium” value is recorded as “significant reduction”; the “thickness of the stroma” value was “continuous increase”. The “time to induction of tyrosine phosphorylation of Ret” value with Ret is at most 5 min. In assay [2], the “gap in the cell monolayer filled” value was found to be 16.5±6%. The “gap in the cell monolayer filled” value in assay [3] is listed as 30%±6.9. For the same molecule, the “increase of number of migrated cells over control” value with corneal epithelial cells [4] is recorded as “more than 6 fold”. Besides, the “number of cells migrated through the filter” value in the assay on corneal epithelial cells [4] (8 μm pore size, 24 h, control 19±6.8) is given as 117±37.6. Also, the “wound gap filled with cells” value in the assay with corneal epithelial cells [5] is on record as 37.9±8.1%.
